“And” between values parts separate entries of the source, which are not always exact repeats. Equal values may be shown once.
T1: IL-18 receptor (IL-18Rαβ) on cells (UniProt Q13478 19-541; O95256 20-599, limits assumed)
T1 sequence (looked up) 1: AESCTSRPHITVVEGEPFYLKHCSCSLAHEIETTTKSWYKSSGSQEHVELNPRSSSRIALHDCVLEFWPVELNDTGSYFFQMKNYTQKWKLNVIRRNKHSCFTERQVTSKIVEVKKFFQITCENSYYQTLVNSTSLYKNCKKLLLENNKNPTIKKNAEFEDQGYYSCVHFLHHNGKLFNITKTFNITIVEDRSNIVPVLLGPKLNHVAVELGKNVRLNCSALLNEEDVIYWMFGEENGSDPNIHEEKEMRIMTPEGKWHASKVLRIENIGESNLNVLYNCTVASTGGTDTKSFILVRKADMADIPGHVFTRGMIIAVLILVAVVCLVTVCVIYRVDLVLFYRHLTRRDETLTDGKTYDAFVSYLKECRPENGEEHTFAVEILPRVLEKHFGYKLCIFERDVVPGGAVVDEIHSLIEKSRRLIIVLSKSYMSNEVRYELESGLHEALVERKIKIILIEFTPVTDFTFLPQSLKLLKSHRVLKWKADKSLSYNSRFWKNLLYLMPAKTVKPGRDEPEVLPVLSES
T1 sequence (looked up) 2: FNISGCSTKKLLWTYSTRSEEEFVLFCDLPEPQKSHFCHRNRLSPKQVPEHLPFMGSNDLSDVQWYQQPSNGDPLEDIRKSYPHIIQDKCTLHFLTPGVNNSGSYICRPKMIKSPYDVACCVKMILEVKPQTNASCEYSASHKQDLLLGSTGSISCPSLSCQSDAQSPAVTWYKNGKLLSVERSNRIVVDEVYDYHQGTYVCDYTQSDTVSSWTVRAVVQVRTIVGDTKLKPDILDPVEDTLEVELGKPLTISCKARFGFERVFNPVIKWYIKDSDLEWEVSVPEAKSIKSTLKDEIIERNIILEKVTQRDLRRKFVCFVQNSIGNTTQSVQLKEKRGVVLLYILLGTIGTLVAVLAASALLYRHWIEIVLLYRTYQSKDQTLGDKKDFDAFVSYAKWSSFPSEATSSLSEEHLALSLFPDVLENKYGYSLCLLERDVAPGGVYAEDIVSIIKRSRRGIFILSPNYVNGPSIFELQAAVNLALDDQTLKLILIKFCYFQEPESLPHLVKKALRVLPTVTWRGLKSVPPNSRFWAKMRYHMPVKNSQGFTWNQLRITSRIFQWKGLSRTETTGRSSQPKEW


Experiments:
[1] = target: T1, IL-18 receptor (IL-18Rαβ) on cells; experiment: cell-based or functional assay
[2] = target: T1, IL-18 receptor (IL-18Rαβ) on cells; experiment: cell-based or functional assay; remark: listed apart in the source

Binder | EC50 (nM), IFNγ induction, NK-92 cells [1] [nM] | EC50 (pM), HEK-Blue IL-18R reporter assay [2]
IL-18 polypeptide SEQ ID NO: 42 (E06K, K53A, S55A, T63A) (ligand) YFGKLKSKLSVIRNLNDQVLFIDQGNRPLFEDMTDSDCRDNAPRTIFIISMYADAQPRGMAVAISVKCEKISTLSCENKIISFKEMNPPDNIKDTKSDIIFFQRSVPGHDNKMQFESSSYEGYFLACEKERDLFKLILKKEDELGDRSIMFTVQNED | 0.144 | 0.79 pM
IL-18 polypeptide SEQ ID NO: 57 (E6K, C38S, K53A) (ligand) YFGKLKSKLSVIRNLNDQVLFIDQGNRPLFEDMTDSDSRDNAPRTIFIISMYADSQPRGMAVTISVKCEKISTLSCENKIISFKEMNPPDNIKDTKSDIIFFQRSVPGHDNKMQFESSSYEGYFLACEKERDLFKLILKKEDELGDRSIMFTVQNED | 0.138 | 0.86 pM and 0.53 pM
IL-18 polypeptide SEQ ID NO: 9 (E6K, C38A, K53A, C68A, D98C) (ligand) YFGKLKSKLSVIRNLNDQVLFIDQGNRPLFEDMTDSDARDNAPRTIFIISMYADSQPRGMAVTISVKAEKISTLSCENKIISFKEMNPPDNIKDTKSCIIFFQRSVPGHDNKMQFESSSYEGYFLACEKERDLFKLILKKEDELGDRSIMFTVQNED | 0.069 | –
C143 (V11I, C38A, K53A, C76A, C127A) (ligand) YFGKLESKLSIIRNLNDQVLFIDQGNRPLFEDMTDSDARDNAPRTIFIISMYADSQPRGMAVTISVKCEKISTLSAENKIISFKEMNPPDNIKDTKSDIIFFQRSVPGHDNKMQFESSSYEGYFLAAEKERDLFKLILKKEDELGDRSIMFTVQNED | 0.012 | 0.98 pM
C150 (V11I, T34A, C38A, K53A, C76A, C127A) (ligand) YFGKLESKLSIIRNLNDQVLFIDQGNRPLFEDMADSDARDNAPRTIFIISMYADSQPRGMAVTISVKCEKISTLSAENKIISFKEMNPPDNIKDTKSDIIFFQRSVPGHDNKMQFESSSYEGYFLAAEKERDLFKLILKKEDELGDRSIMFTVQNED | 0.061 | 0.7 pM
C148 (F2A, V11I, C38A, K53A, C76A, C127A) (ligand) YAGKLESKLSIIRNLNDQVLFIDQGNRPLFEDMTDSDARDNAPRTIFIISMYADSQPRGMAVTISVKCEKISTLSAENKIISFKEMNPPDNIKDTKSDIIFFQRSVPGHDNKMQFESSSYEGYFLAAEKERDLFKLILKKEDELGDRSIMFTVQNED | 0.187 | 7.28 pM
IL-18 polypeptide SEQ ID NO: 35 (Y01G, F02A, E06K, M51G, K53A, D54A, S55A, T63A) (ligand) GAGKLKSKLSVIRNLNDQVLFIDQGNRPLFEDMTDSDCRDNAPRTIFIISGYAAAQPRGMAVAISVKCEKISTLSCENKIISFKEMNPPDNIKDTKSDIIFFQRSVPGHDNKMQFESSSYEGYFLACEKERDLFKLILKKEDELGDRSIMFTVQNED | > 55 | –
IL-18 polypeptide SEQ ID NO: 4 (E6K, C38A, K53A, C68A, M86C) (ligand) YFGKLKSKLSVIRNLNDQVLFIDQGNRPLFEDMTDSDARDNAPRTIFIISMYADSQPRGMAVTISVKAEKISTLSCENKIISFKECNPPDNIKDTKSDIIFFQRSVPGHDNKMQFESSSYEGYFLACEKERDLFKLILKKEDELGDRSIMFTVQNED | 0.022 | –
C144 (V11I, C38A, K53A, T63A, C76A, C127A) (ligand) YFGKLESKLSIIRNLNDQVLFIDQGNRPLFEDMTDSDARDNAPRTIFIISMYADSQPRGMAVAISVKCEKISTLSAENKIISFKEMNPPDNIKDTKSDIIFFQRSVPGHDNKMQFESSSYEGYFLAAEKERDLFKLILKKEDELGDRSIMFTVQNED | 0.087 | 0.17 pM
C145 (V11I, C38A, K53A, S55A, C76A, C127A) (ligand) YFGKLESKLSIIRNLNDQVLFIDQGNRPLFEDMTDSDARDNAPRTIFIISMYADAQPRGMAVTISVKCEKISTLSAENKIISFKEMNPPDNIKDTKSDIIFFQRSVPGHDNKMQFESSSYEGYFLAAEKERDLFKLILKKEDELGDRSIMFTVQNED | 0.037 | 3.63 pM
IL-18 polypeptide SEQ ID NO: 6 (E6K, V11I, C38A, K53A, T63A, C68A, C76A, D98C, C127A) (ligand) YFGKLKSKLSIIRNLNDQVLFIDQGNRPLFEDMTDSDARDNAPRTIFIISMYADSQPRGMAVAISVKAEKISTLSAENKIISFKEMNPPDNIKDTKSCIIFFQRSVPGHDNKMQFESSSYEGYFLAAEKERDLFKLILKKEDELGDRSIMFTVQNED | 1.37 | –
C146 (SEQ ID NO: 79; V11I, C38A, M51G, K53A, C76A, C127A) (ligand) YFGKLESKLSIIRNLNDQVLFIDQGNRPLFEDMTDSDARDNAPRTIFIISGYADSQPRGMAVTISVKCEKISTLSAENKIISFKEMNPPDNIKDTKSDIIFFQRSVPGHDNKMQFESSSYEGYFLAAEKERDLFKLILKKEDELGDRSIMFTVQNED | 0.079 | 0.8 pM
C149 (V11I, E31A, C38A, K53A, C76A, C127A) (ligand) YFGKLESKLSIIRNLNDQVLFIDQGNRPLFADMTDSDARDNAPRTIFIISMYADSQPRGMAVTISVKCEKISTLSAENKIISFKEMNPPDNIKDTKSDIIFFQRSVPGHDNKMQFESSSYEGYFLAAEKERDLFKLILKKEDELGDRSIMFTVQNED | 0.015 | 6.6 pM
C147 (V11I, C38A, K53A, D54A, C76A, C127A) (ligand) YFGKLESKLSIIRNLNDQVLFIDQGNRPLFEDMTDSDARDNAPRTIFIISMYAASQPRGMAVTISVKCEKISTLSAENKIISFKEMNPPDNIKDTKSDIIFFQRSVPGHDNKMQFESSSYEGYFLAAEKERDLFKLILKKEDELGDRSIMFTVQNED | 0.256 | 1 pM
IL-18 polypeptide SEQ ID NO: 50 (E06K, K53A, T63A) (ligand) YFGKLKSKLSVIRNLNDQVLFIDQGNRPLFEDMTDSDCRDNAPRTIFIISMYADSQPRGMAVAISVKCEKISTLSCENKIISFKEMNPPDNIKDTKSDIIFFQRSVPGHDNKMQFESSSYEGYFLACEKERDLFKLILKKEDELGDRSIMFTVQNED | 0.0268 | 1.77 pM
IL-18 polypeptide SEQ ID NO: 5 (E6K, V11I, C38A, K53A, T63A, C68A, C76A, M86C, C127A) (ligand) YFGKLKSKLSIIRNLNDQVLFIDQGNRPLFEDMTDSDARDNAPRTIFIISMYADSQPRGMAVAISVKAEKISTLSAENKIISFKECNPPDNIKDTKSDIIFFQRSVPGHDNKMQFESSSYEGYFLAAEKERDLFKLILKKEDELGDRSIMFTVQNED | 0.075 | –
IL-18 polypeptide SEQ ID NO: 54 (E06K, K53A, C38S, C68S, C76S, C127S, K70C) (ligand) YFGKLKSKLSVIRNLNDQVLFIDQGNRPLFEDMTDSDSRDNAPRTIFIISMYADSQPRGMAVTISVKSECISTLSSENKIISFKEMNPPDNIKDTKSDIIFFQRSVPGHDNKMQFESSSYEGYFLASEKERDLFKLILKKEDELGDRSIMFTVQNED | 0.962 | 9.12 pM
IL-18 polypeptide SEQ ID NO: 60 (E6K, C38Q, K53A) (ligand) YFGKLKSKLSVIRNLNDQVLFIDQGNRPLFEDMTDSDQRDNAPRTIFIISMYADSQPRGMAVTISVKCEKISTLSCENKIISFKEMNPPDNIKDTKSDIIFFQRSVPGHDNKMQFESSSYEGYFLACEKERDLFKLILKKEDELGDRSIMFTVQNED | 0.015 | 0.203 pM
IL-18 polypeptide SEQ ID NO: 62 (E6K, C38A, K53A, C127A) (ligand) YFGKLKSKLSVIRNLNDQVLFIDQGNRPLFEDMTDSDARDNAPRTIFIISMYADSQPRGMAVTISVKCEKISTLSCENKIISFKEMNPPDNIKDTKSDIIFFQRSVPGHDNKMQFESSSYEGYFLAAEKERDLFKLILKKEDELGDRSIMFTVQNED | 0.006 | 0.17 pM
IL-18 polypeptide SEQ ID NO: 59 (E6K, C38A, K53A) (ligand) YFGKLKSKLSVIRNLNDQVLFIDQGNRPLFEDMTDSDARDNAPRTIFIISMYADSQPRGMAVTISVKCEKISTLSCENKIISFKEMNPPDNIKDTKSDIIFFQRSVPGHDNKMQFESSSYEGYFLACEKERDLFKLILKKEDELGDRSIMFTVQNED | 0.045 | 0.268 pM

Reference: patent publication US20240116997A1 (BRIGHT PEAK THERAPEUTICS, published 2024)
